Here are results for three molecules from US20160355602A1 (Astellas, published 2016).

Where “and” joins values, the source holds several entries; their conditions need not be identical. Equal values may be shown once.

Assay [1] deals with T1, human TLR2 protein (R&D Systems, 2616-TR-050) (human, UniProt O60603 21-590, limits assumed).
T1 construct: Bought recombinant protein
Kind of assay: ELISA, human TLR2 protein immobilized on plate, detection with anti-human IgG-HRP. On the procedure: (§1) In order to evaluate the binding activity of each of two bispecific antibodies prepared in Example 8 for human TLR2 and human TLR4, ELISA was carried out using a human TLR2 protein and a human TLR4/MD2 protein. 15 μL/well of a human TLR2 protein (R&D Systems, 2616-TR-050) diluted to a concentration of 10 μg/mL in PBS (Life Technologies, 10010-023) was added to a MaxiSorp 384-well plate Clear (Thermo Fisher Scientific Inc.), followed by immobilization at room temperature for 1 hour. Similarly, 15 μL/well of a human TLR4/MD2 protein (R&D Systems, 3146-TM/CF) was added at 10 μg/mL, followed by immobilization at room temperature for 1 hour. After 1 hour, the wells were washed three times with a washing solution (0.05% Tween-20-containing Tris-buffered saline (TBS)), and 100 μL/well of Blocking One (NACALAI TESQUE, INC., 03953-95) was added, followed by blocking at room temperature for 1 hour. The wells were washed again three times with a washing solution, 15 μL/well of two bispecific antibodies prepared in Example 8 was added to the well on which the human TLR2 protein was immobilized and the well on which the human TLR4/MD2 protein was immobilized. […] An absorbance at 450 nm was measured by using Safire2 (TECAN), and an EC50 value of each antibody for the human TLR2 protein and the human TLR4/MD2 protein was calculated.
(In general: An ELISA detects its analyte on a solid surface through an enzyme-linked reagent.)

The target of assay [2] is T2, human TLR4/MD2 protein (R&D Systems, 3146-TM/CF) (human, UniProt O00206 24-631; Q9Y6Y9 17-160, limits assumed).
T2 construct: Bought recombinant complex; also called human TLR4 and MD2 complex
T2 sequence (O00206 24-631 limits assumed, chain 1 of 2): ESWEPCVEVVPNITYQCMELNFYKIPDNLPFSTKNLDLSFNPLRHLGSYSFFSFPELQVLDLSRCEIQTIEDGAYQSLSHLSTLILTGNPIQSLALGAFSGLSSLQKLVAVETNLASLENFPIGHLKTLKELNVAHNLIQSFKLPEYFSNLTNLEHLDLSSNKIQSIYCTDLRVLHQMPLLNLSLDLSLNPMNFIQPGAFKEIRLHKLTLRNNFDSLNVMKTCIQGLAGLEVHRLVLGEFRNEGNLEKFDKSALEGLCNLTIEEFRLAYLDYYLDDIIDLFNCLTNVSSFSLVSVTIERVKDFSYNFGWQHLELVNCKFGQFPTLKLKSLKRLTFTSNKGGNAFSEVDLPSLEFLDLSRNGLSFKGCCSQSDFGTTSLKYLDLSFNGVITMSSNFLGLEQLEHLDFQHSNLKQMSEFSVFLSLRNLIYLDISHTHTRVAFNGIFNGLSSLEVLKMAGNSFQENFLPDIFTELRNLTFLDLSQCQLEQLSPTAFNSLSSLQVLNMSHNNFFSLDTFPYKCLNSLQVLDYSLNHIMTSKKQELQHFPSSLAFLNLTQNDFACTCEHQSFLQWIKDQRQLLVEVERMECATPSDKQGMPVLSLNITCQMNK
T2 sequence (Q9Y6Y9 17-160 limits assumed, chain 2 of 2): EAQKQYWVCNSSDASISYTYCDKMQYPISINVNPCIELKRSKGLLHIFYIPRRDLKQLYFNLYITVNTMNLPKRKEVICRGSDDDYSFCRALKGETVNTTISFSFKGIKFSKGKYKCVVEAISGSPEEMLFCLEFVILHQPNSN
Kind of assay: ELISA, human TLR4/MD2 protein immobilized on plate, detection with anti-human IgG-HRP. The procedure: as §1

Assay [3] concerns the target T3, human TLR2 endogenously expressed on cells (THP1-xBlue cells; normal human peripheral blood mononuclear cells) (human, UniProt O60603 21-784). Nature of the assay: cell-based or functional assay.
Assay [4] addresses human TLR4/MD2 endogenously expressed on normal human peripheral blood mononuclear cells (human, UniProt O00206 24-839; Q9Y6Y9 19-160). Nature of the assay: cell-based or functional assay.
In assay [5] the target is T1, human TLR2 protein (R&D Systems, …). Kind of assay: SPR (Biacore T200), human TLR2 protein captured by anti-His IgG on CM5 chip, antibody at 200 nM as analyte, bivalent analyte model. On the procedure:
To evaluate a binding activity of the fully human 31-5F5-2F3.m1 prepared in Example 4 for human TLR2, an SPR analysis was carried out.
In the SPR analysis, Biacore T200 (GE Healthcare Japan) was used to carry out analysis. An Anti-His IgG (enclosed in His Capture Kit) was immobilized on a sensor chip CM5 (GE Healthcare Japan, BR-1005-30) using a His Capture Kit (GE Healthcare Japan, 28-9950-56) and Amine Coupling Kit (GE Healthcare Japan, BR-1000-50). Flow path No. 1 is referred to as a reference, onto which the human TLR2 protein was not attached. Onto each of other flow paths (No. 2, No. 3, and No. 4), a human TLR2 protein (R&D Systems, 2616-TR-050) diluted to 0.66 μg/mL in HBS-EP+ buffer (GE Healthcare Japan, BR-1006-69) was added at a flow rate of 5 μL/minute for 2 minutes and then immobilized. Thereafter, a solution of fully human 31-5F5-2F3.m1 diluted to 200 nM in HBS-EP+buffer was added at a flow rate of 50 μL/minute for 2 minutes, and the fully human antibody-human TLR2 binding was measured. Next, HBS-EP+buffer was added at a flow rate of 50 μL/minute for 5 minutes and the dissociation of the fully human antibody and human TLR2 was measured. Bivalent analyte model and the Rmax were analyzed by Fit local to calculate the association rate constant (ka) and dissociation rate constant (kd), and the association-dissociation constant (KD) was calculated by dividing kd by ka.

Assay [6] concerns the target T3, human TLR2 endogenously expressed on …. Nature of the assay: cell-based or functional assay. The source holds these as a separate data set.

T3 sequence (O60603 21-784): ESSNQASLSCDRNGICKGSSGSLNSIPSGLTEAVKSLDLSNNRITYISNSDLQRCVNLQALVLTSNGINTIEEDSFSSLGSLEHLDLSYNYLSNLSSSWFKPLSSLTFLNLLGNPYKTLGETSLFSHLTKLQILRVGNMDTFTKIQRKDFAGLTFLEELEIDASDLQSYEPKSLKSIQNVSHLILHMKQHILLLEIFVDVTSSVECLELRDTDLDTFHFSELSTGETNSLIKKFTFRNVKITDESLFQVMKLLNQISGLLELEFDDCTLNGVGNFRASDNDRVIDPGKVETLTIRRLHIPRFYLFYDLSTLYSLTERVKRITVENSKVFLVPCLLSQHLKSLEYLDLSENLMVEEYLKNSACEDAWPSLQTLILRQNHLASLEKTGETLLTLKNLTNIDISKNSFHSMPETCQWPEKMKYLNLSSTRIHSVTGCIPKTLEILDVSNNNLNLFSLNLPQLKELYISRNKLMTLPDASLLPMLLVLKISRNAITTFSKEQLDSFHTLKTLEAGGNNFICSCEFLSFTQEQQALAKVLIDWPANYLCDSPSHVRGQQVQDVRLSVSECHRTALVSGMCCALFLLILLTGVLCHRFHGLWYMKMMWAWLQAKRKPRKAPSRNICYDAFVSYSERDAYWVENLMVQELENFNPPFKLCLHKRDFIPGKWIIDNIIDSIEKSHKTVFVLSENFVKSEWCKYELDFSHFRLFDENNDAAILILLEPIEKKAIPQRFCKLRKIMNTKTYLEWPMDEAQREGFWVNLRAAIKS
T1 sequence (O60603 21-590 limits assumed): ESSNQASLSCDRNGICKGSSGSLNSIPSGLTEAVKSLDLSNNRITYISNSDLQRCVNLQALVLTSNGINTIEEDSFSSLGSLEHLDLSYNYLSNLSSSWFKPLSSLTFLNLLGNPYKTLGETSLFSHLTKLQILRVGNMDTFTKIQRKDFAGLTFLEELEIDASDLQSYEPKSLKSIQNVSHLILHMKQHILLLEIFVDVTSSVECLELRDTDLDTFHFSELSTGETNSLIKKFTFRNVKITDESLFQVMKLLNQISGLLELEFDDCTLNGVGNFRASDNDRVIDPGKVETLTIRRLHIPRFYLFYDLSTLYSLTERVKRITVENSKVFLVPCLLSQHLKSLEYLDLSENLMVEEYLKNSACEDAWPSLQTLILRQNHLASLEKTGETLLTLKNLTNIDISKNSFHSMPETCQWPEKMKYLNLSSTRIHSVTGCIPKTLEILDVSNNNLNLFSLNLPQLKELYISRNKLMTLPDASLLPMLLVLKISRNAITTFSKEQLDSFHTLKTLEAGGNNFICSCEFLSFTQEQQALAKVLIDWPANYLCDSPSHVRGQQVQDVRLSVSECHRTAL
Chain of human TLR4/MD2 endogenously expressed on normal human peripheral blood mononuclear cells (O00206 24-839, chain 1 of 2): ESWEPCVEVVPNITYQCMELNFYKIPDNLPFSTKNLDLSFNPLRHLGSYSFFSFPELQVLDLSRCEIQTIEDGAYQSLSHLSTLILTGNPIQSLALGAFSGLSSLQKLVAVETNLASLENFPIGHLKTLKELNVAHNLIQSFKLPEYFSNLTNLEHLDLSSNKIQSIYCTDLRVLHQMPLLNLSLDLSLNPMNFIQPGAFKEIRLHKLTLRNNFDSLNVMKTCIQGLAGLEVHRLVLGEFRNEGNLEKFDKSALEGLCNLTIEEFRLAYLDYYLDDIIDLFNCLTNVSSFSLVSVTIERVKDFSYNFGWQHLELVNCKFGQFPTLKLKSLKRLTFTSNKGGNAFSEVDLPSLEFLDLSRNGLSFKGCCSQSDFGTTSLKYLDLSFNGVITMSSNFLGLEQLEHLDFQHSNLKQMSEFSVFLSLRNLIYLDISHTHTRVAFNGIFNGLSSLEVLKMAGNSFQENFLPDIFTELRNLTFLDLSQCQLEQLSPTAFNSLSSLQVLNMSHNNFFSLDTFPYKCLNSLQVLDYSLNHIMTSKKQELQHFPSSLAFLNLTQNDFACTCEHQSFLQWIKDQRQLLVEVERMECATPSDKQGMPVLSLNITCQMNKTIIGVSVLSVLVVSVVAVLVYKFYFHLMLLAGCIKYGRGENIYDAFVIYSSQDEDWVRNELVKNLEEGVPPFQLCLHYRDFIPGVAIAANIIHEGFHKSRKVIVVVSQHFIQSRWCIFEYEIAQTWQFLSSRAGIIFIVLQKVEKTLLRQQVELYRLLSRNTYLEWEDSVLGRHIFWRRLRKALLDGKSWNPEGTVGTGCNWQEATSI
Chain of human TLR4/MD2 endogenously expressed on normal human peripheral blood mononuclear cells (Q9Y6Y9 19-160, chain 2 of 2): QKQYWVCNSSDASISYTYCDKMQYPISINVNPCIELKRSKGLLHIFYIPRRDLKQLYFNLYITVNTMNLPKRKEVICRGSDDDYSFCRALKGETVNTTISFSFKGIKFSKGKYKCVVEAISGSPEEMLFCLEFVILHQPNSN

B1: fully human ICU-1-Igγ1-LAsh (bispecific antibody, human IgG1, kappa, L234A L235A)
heavy: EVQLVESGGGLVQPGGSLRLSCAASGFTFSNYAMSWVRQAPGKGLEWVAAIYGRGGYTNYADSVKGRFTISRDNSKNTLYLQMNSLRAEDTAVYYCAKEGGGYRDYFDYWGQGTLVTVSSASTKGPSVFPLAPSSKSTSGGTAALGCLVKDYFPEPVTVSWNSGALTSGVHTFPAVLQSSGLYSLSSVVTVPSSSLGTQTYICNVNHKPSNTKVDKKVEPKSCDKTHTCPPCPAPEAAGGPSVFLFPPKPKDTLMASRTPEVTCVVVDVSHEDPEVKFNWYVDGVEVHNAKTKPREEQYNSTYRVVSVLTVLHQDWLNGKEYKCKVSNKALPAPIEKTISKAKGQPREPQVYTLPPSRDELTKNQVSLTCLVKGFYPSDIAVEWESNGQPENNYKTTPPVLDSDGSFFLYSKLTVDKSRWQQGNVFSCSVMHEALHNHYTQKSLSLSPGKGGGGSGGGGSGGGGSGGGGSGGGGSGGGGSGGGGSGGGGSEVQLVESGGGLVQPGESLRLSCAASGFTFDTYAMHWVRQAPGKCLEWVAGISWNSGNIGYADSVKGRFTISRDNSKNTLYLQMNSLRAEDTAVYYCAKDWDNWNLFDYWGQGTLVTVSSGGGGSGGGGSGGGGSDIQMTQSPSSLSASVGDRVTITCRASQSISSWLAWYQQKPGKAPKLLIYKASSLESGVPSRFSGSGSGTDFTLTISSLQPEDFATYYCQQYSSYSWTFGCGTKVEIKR
light: DVQMTQSPSSLSASVGDRVTITCRSSQSLVFSDGNTYLNWFQQKPGKAPKRLIYKVSNRDSGVPSRFSGSGSGTDFTLTISSLQPEDFATYYCMQGAHWPLTFGQGTKVEIKRTVAAPSVFIFPPSDEQLKSGTASVVCLLNNFYPREAKVQWKVDNALQSGNSQESVTEQDSKDSTYSLSSTLTLSKADYEKHKVYACEVTHQGLSSPVTKSFNRGEC
notes: As fully human ICU-1-Igγ1, but with L234A, L235A and I253A (EU index) in the human Igγ1 constant region; also called IgG(TLR2)-scFv(TLR4) bispecific antibody with L234A, L235A and I253A
One may read the EC50 as the concentration at which the effect is half-maximal. Low readings indicate higher potency in that assay, high ones lower potency in that assay. Consider B1, for which the EC50 turned out to be 0.21 nM in assay [1] and 0.522 nM in assay [2]. The “IC50 value, killed Pseudomonas aeruginosa-induced TNFα production on normal human peripheral blood mononuclear cells” value in assay [3] and in assay [4] was 0.0172 nM throughout.

B2: fully human ICU-1-Igγ1 (bispecific antibody, human IgG1, kappa)
heavy: not shown
light: B1 light
notes: Tetravalent IgG-scFv: an anti-TLR4 scFv is joined by a GS linker to the C terminal of each heavy chain of the anti-TLR2 IgG1; also called IgG(TLR2)-scFv(TLR4) bispecific antibody
Take B2: the results for the EC50 in assay [1] and in assay [2] were 0.15 nM and 0.493 nM, respectively. In addition, the “IC50 value, killed Pseudomonas aeruginosa-induced TNFα production on normal human peripheral blood mononuclear cells” value in assay [3] and in assay [4] was 0.04 nM each time.

B3: fully human 31-5F5-2F3.m1 (antibody, human IgG1, kappa, V domains shown)
VH: EVQLVESGGGLVQPGGSLRLSCAASGFTFSNYAMSWVRQAPGKGLEWVAAIYGRGGYTNYADSVKGRFTISRDNSKNTLYLQMNSLRAEDTAVYYCAKEGGGYRDYFDYWGQGTLVTVSS
VL: DVQMTQSPSSLSASVGDRVTITCRSSQSLVFSDGNTYLNWFQQKPGKAPKRLIYKVSNRDSGVPSRFSGSGSGTDFTLTISSLQPEDFATYYCMQGAHWPLTFGQGTKVEIKR
notes: Human Igγ1 / human kappa constant regions; also called fully human anti-human TLR2 antibody; fully human antibody of 31-5F5-2F3.m1
B3 had a Kd in assay [5] of 0.0885 nM. Also, the “IC50 value against Pam2CSK4-induced AP production in THP1-xBlue cells” value in assay [6] was 0.0977 nM and 0.13 nM.
